A word on the Kd: it is the concentration at which binding is half-saturated. A high value points to weaker binding.

The values that follow come from patent US20220031830A1.

Assay [1] concerns the target 11MUTB Env trimer (SOSIP.664) derived from wtBG505 (HIV-1 BG505). Briefly: SPR (Biacore T200), SOSIP captured on 8ANC195 IgG, Fab injected, equilibrium fit 1:1.
The target in assay [2] is RC1 Env trimer (BG505-derived SOSIP.664 soluble gp140) (HIV-1 BG505). Described as above.

In the case of “Fab of the common inferred germline (iGL) precursor of PGT121 and 10-1074”, the Kd in assay [1] and in assay [2] was 50 µM throughout.
